Measured values: patent US20120094356A1

Target: trypsin
Assay: trypsin inhibition assay, 10 nM each, chromogenic substrate; Ka calculated

Ka: 7.5e+08 M⁻¹
Substance: human growth hormone/alpha-1 antitrypsin fusion [T109wt: α1AT/hGH]
